Measurements reported in patent US20090035320A1 (MIE UNIVERSITY, published 2009).

T1: PCI-Flag (human, UniProt P05154 26-406, limits assumed)
T1 construct: Full-length human PCI ORF with a C-terminal Flag tag, secreted by CHO cells and purified from the culture supernatant; also called Flag-tagged PCI
T1 chain: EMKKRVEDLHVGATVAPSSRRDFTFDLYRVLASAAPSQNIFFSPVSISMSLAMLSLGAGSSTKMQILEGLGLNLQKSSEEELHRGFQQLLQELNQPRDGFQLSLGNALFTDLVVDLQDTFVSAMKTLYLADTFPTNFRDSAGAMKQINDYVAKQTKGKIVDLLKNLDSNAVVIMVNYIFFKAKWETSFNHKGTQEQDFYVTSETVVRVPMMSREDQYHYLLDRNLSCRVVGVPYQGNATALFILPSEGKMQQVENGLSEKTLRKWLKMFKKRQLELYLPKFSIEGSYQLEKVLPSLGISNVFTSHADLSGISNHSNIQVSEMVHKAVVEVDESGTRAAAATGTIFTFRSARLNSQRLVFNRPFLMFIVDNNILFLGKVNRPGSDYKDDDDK

B1: PC31E2 (antibody, V domains shown)
VH: QVQLQQSGAELVKPGASVKMSCKAFGYTFTTYPIEWMKQNHGKSLEWIGKFHPDNDDTNYNEKFKGKAKLTVEKSSSTVYLELSRLTSDDSAVYYCARGHDYDYGMDYWGQGTSVTVSS
VL: DIVLTQSPASLAVSLGQRATISCKASQSVDYDGDSYLNWYQQKPGQPPKLLIYGASNLESGTPARFSGSGSGTDFTLDIHPVEEEDAATYYCQQSNEDPPTFGGGTKLEIT
notes: also called anti-PCI neutralizing antibody
B2: PC19G8 (antibody, IgG1, V domains shown)
VH: EVQLQQSGAELVKPGASVKLSCTASGFDIKDTFMHWVKQRPEQGLEWIGRIDYVNGNTKYDPKFQGKATITGDTSSNTAYLQLSSLTSEDTAVYYCARGGYDVREFAYWGQGTLVTVSA
VL: QIVLTQSPAIMSASPGEKVTITCSATSSLIYMHWFQQKPGSSPELWIYSTSNLASGVPARFSGSGSGTSYSLTISRMEAEDAATYYCQQRSSYPFTFGSGTKLEIK
notes: also called clone #19G8; anti-PCI neutralizing antibody
B3: PC23D8 (antibody, IgG2a, V domains shown)
VH: EVQLQQSGAELVKPGASVKLSCTASGFDIKDTFMHWVKQRPEQGLEWIGRIDYVNGNTKYDPKFQGKATITGDTSSNTAYLQLSSLTSEDTAVYYCARGGYDVREFAYWGQGTLVTVSA
VL: QIVLTQSPAIMSASPGEKVTITCSATSSLIYMHWFQQKPGSSPELWIYSTSNLASGVPARFSGSGSGTSYSLTISRMEAEDAATYYCQQRSSYPFTFGSGTKLEIK
notes: as for B1
B4: PC39C6 (antibody, IgG1, V domains shown)
VH: EVQLQQSGAELVRPGALVKLSCKASGFNIKDYYIHWVKQRPEQGLEWIGRIDLEKGNIIYDPKFQGKDNITADTSSNTAYLQLSSLTSEDTAVYYCARGGYDVPSFAYWGQGTLVTVSA
VL: QIVLTQSPAIMSASPGEKVTITCSASSSVSYMHWFQQKPGTSPKLWIYSTSNLASGVPARFSGSGSGTSYSLTISRMEAEDAATYYCQQRSSYPFTFGSGTKLEIK
notes: Mouse hybridoma monoclonal, IgG1, purified on Protein G; also called anti-PCI neutralizing antibody
B5: PC23A7 (antibody, IgG2a, V domains shown)
VH: EVQLQQSGAELVKPGASVKLSCTASGFDIRDTFMHWVKQRPEQGLEWIGRIDLVNVNTKYDPNFQDRATITADTSSNTAYLQLTSLTSEDTAVYYCARGGYDVREFAYWGQGTLVTVSA
VL: QIVLTQSPAIMSASPGEKVTITCSATSSLIYMHWFQQKPGTSPKLWIYSTSNLASGVPARFSGSGSGTSYSLTISRMEAEDAATYYCQQRSSYPFTFGSGTKLEIK
notes: Mouse hybridoma monoclonal, IgG2a, purified on Protein G; also called anti-PCI neutralizing antibody

Target: T1, PCI-Flag
Assay: SPR (BIACORE 2000), PCI-Flag amine-coupled to CM5 chip, antibody injected
Description: PCI-Flag was diluted to 25 μg/ml with 10 mM sodium acetate (pH5.0), and then amine-coupled to a sensor chip CM5 (BIACORE; BR-1000-14) using an amine coupling kit (BIACORE; BR-1000-50) according to the method described in the kit. Approximately 3,000 RU of PCI-Flag was immobilized onto the CM5 chip by this treatment. The kinetic analyses described below were performed on BIACORE 2000 using the sensor chip. […] After the chip was equilibrated with HBS-EP buffer, 40 μl of the antibody solution at each concentration was injected at a flow rate of 20 μl/min. In the association phase, the antibody was injected over two minutes. Then, instead of the antibody, HBS-EP buffer was injected over two minutes in the dissociation phase. After the dissociation phase, 40 μl of 10 mM HCl and then 40 μl of 0.05% SDS were injected continuously to regenerate the sensor chip. The sensorgrams obtained by the procedure described above were superimposed, and the binding rate constant (ka), dissociation rate constant (kd), dissociation constant (KD), and maximal binding (Rmax) were computed using data analysis software (BIAevaluation, ver. 3.0).
B1 showed a Kd of 1.79 nM, a koff of 0.000313 s⁻¹ and a kon of 175000 M⁻¹ s⁻¹. B2 gave a Kd of 0.126 nM, a koff of 2.13e-05 s⁻¹ and a kon of 168000 M⁻¹ s⁻¹. With B3 the Kd was 0.293 nM, the koff was 6.59e-05 s⁻¹ and the kon was 225000 M⁻¹ s⁻¹. B4 was tested, and the Kd was 5.51 nM, the koff was 0.000489 s⁻¹ and the kon was 88800 M⁻¹ s⁻¹. B5 showed a Kd of 0.473 nM, a koff of 7.17e-05 s⁻¹ and a kon of 151000 M⁻¹ s⁻¹.
